# In publication PMC3170999 (Molecular cancer therapeutics, 2011):
# Tests used:
# [1] = biological target: Biotinylated human IGF1 (human, UniProt P05019, biotin); test: flow cytometry on cells
# [2] = biological target: Biotinylated human IGF2 (Homo sapiens, UniProt P01344, biotin); test: flow cytometry on cells
# [3] = biological target: T1, Human IGF2 (Homo sapiens, UniProt P01344); test: SPR
# [4] = biological target: T2, Recombinant human IGF1 (Homo sapiens, UniProt P05019); test: SPR
# [5] = biological target: T1, Human IGF2; test: SPR; remark: listed apart in the source
# [6] = biological target: T2, Recombinant human IGF1; test: SPR; remark: listed apart in the source
Binder,Kd [1],Kd [2],fold change of the effective KD against the KD of scFv m708.5 [3],fold change of the effective KD against the KD of scFv m708.5 [4],Kd [5],koff [5],Kd [6],koff [6]
"scFv m708.2, yeast-displayed (scFv, V domains shown) VH: QVQLQQPGAEVKKPGSSVKVSCKASGGTFSSYAISWVRQAPGQGLEWMGGIIPILGIANYAQKFQGRVTITADESTSTAYMELSSLRSEDTAVYYCARGPRGYSYNFDYWGQGTLVTVSS VL: DIQMTQSPSSLSASVGDRVTIACRASQTISRYLNWYQQKPGKAPKLLIYAASSLQSGVSSRFSGSGSGTEFTLTISSLQPEDFATYFCQQTYSPPITFGQGTRLEIK",3.9 nM,1.1 nM,,,,,,
"IgG1 m708.5 (antibody, V domains shown) VH: QVQLQQLGAEVKMPGSSVKVSCKASGGTFSSYAISWVRQAPGQGLEWMGGIIPTLGIVKYAQKFQGRVTITADKSTSTAYMELSSLGSEDTAVYYCAGGPRGYSYNFDNWGQGTLVTVSS VL: DIQMTQSPSSLSASVGDRVTIVCRASQTISRYVNWYQQKPGKAPKLLIYAASSLQSGVSSRFSGSGSGTEFALTISSLQPEDFATYFCQQTYSPPITFGQGTRLEIK",,,60 fold,1000 fold,,,,
"scFv m708.2, purified soluble (scFv, V domains shown) VH: QVQLQQPGAEVKKPGSSVKVSCKASGGTFSSYAISWVRQAPGQGLEWMGGIIPILGIANYAQKFQGRVTITADESTSTAYMELSSLRSEDTAVYYCARGPRGYSYNFDYWGQGTLVTVSS VL: DIQMTQSPSSLSASVGDRVTIACRASQTISRYLNWYQQKPGKAPKLLIYAASSLQSGVSSRFSGSGSGTEFTLTISSLQPEDFATYFCQQTYSPPITFGQGTRLEIK",,,,,1.8 nM,0.0004 s⁻¹,2.2 nM,0.0024 s⁻¹
"scFv m708.5, yeast-displayed (scFv, V domains shown) VH: QVQLQQLGAEVKMPGSSVKVSCKASGGTFSSYAISWVRQAPGQGLEWMGGIIPTLGIVKYAQKFQGRVTITADKSTSTAYMELSSLGSEDTAVYYCAGGPRGYSYNFDNWGQGTLVTVSS VL: DIQMTQSPSSLSASVGDRVTIVCRASQTISRYVNWYQQKPGKAPKLLIYAASSLQSGVSSRFSGSGSGTEFALTISSLQPEDFATYFCQQTYSPPITFGQGTRLEIK",0.1 nM,0.041 nM,,,,,,
"scFv m708.5, purified soluble (scFv, V domains shown) VH: QVQLQQLGAEVKMPGSSVKVSCKASGGTFSSYAISWVRQAPGQGLEWMGGIIPTLGIVKYAQKFQGRVTITADKSTSTAYMELSSLGSEDTAVYYCAGGPRGYSYNFDNWGQGTLVTVSS VL: DIQMTQSPSSLSASVGDRVTIVCRASQTISRYVNWYQQKPGKAPKLLIYAASSLQSGVSSRFSGSGSGTEFALTISSLQPEDFATYFCQQTYSPPITFGQGTRLEIK",,,,,0.061 nM,2.5e-06 s⁻¹,0.2 nM,0.00028 s⁻¹
